Assay [1] has as its target T1, SARS-CoV-2(従来株(武漢株))のSタンパク質のRBDタンパク質 (SARS-CoV-2(従来株(武漢株)), UniProt P0DTC2 322-536).
T1 construct: range 322-536
Nature of the assay: X-ray crystal structure of the RBD-Fab complex.

Assay [2] deals with T1, SARS-CoV-2(従来株(武漢株))のSタンパク質のRBDタンパク質. Description: ELISA, RBD coated at 2 μg/ml, Expi293 culture supernatant, HRP anti-human IgG.

B1: 抗体NCV2SG53(Fab) (Fab, V domains shown)
VH: QVQMVESGGGLVRPGGSLRLSCAASGFTFSDYYMSWIRQAPGKGLEWISYISSSGSSMNYADSVKGRFTISRDNAKNSLFLQMNSLRAEDTAVYYCAREFDLTKIIMVPPYWGQGTLVTVSS
VL: AIQLTQSPSSLSASVGDRVTITCRASQGISSYLAWYQQKPGKAPKVLIYAASTLQSGVPSRFSGSGSGTDFTLTISSLQPEDFATYYCQQLKSYPLTFGGGTKVEIT
notes: also called Fab(抗体NCV2SG53)
As to B1, the binding result in assay [1] is given as “binds”.

B2: 抗体NCV2SG53 (antibody, V domains shown)
VH: B1 VH
VL: B1 VL
With B2, the binding result in assay [2] is “binds”.

B3: 抗体NCV2SG48(Fab) (Fab, V domains shown)
VH: EVQLVESGGGLIQPGGSLRLSCAASGFIVSRNYMNWVRQAPGKGLEWVALIYSGGSTFYADSVKGRFTISRDNSKNTLYLQMNSLRAEDTAVYYCARDLVVYGLDYWGQGTLVTVSS
VL: AIQLTQSPSSLSASVGDRVTITCRASQGISSHLAWYQQKPGKAPKLLIFAASTLQSGVPSRFSGSGSGTDFTLTISSLQPEDFATYYCQHLNSNPPITFGQGTRLEIK
notes: also called Fab(抗体NCV2SG48)
Regarding B3, the binding result in assay [1] is “binds”.

Values taken from patent JP2023014062A (dated 2023).
